Here are results for two molecules from paper PMC5816949, “Highly Sensitive Colorimetric Biosensor for Staphylococcal Enterotoxin B by a Label-Free Aptamer and Gold Nanoparticles”.

Series [1] concerns the target Staphylococcal enterotoxin B (SEB, r-SEB) (Staphylococcus aureus, UniProt P01552 28-266). The experiment in a line: AuNP colorimetric aggregation assay; 240 nM random DNA. The note with it: protein: recombinant; label: none.
For series [2] the target is unchanged.

Read-outs that look alike come from different tables or passages of the source.

Take CGTAGTCTAGTGTCGATTAGTTTCCTTGAGACCTTGTGCT (ssDNA) [random ssDNA (RDNA)]: the binding result in series [1] is “no binding”.

B1: SEB2 aptamer (ssDNA)
DNA: TAGCTCACTCATTAGGCACGGGTAGGCCATAATATCTTATTAGCGTAATTCTGCGATTGGCATAGTTAAGCCAGCC
In the case of B1, in series [2], the binding result is on record as “binds”.
